From PMC13397619

B1: NLV2 TCR alpha chain (CDR3α only) (parent)
chain: AGPMKTSYDKVI
partner: NLVGMVATV

Variants of: B1
Assay: T-Switch: Jurkat TCRβ−/− cells expressing a CDR3 saturation-mutagenesis library, stained with two peptide-HLA-A*02:01 tetramers (original and novel peptide) plus anti-CD3, FACS-sorted into four gates, gDNA sequenced
Details: with HLA-A*02:01 with peptide … (NLV 2-2, the original bait), tetramers 1 µg/mL, 30 min on ice, DP and SW gates expanded about 10 days between rounds ('two to three rounds of selection' in the Methods), gate SP: higher = more of the variant in the gate that binds the original peptide and not the novel one = retained original binding. Fold enrichment of the CDR3 variant in one FACS gate of a two-tetra, unresolved parent, parent is a CDR3 fragment, scale: fold enrichment, numbering: sequential-on-construct, sequence …

Variant	enrichment
[…] (CDR3 as printed); K5R derived by comparing it with the table's wild-type CDR3 AGPMKTSYDKVI	0
[…] (CDR3 as printed); K5E derived by comparing it with the table's wild-type CDR3 AGPMKTSYDKVI	21.3
[…] (CDR3 as printed); S7Q derived by comparing it with the table's wild-type CDR3 AGPMKTSYDKVI	0
[…] (CDR3 as printed); D9R derived by comparing it with the table's wild-type CDR3 AGPMKTSYDKVI	0
[…] (CDR3 as printed); D9M derived by comparing it with the table's wild-type CDR3 AGPMKTSYDKVI	0.433
[…] (CDR3 as printed); G2C derived by comparing it with the table's wild-type CDR3 AGPMKTSYDKVI	0
[…] (CDR3 as printed); M4H derived by comparing it with the table's wild-type CDR3 AGPMKTSYDKVI	2.65
[…] (CDR3 as printed); K5Q derived by comparing it with the table's wild-type CDR3 AGPMKTSYDKVI	7.86
[…] (CDR3 as printed); K10C derived by comparing it with the table's wild-type CDR3 AGPMKTSYDKVI	0.162
[…] (CDR3 as printed); K5M derived by comparing it with the table's wild-type CDR3 AGPMKTSYDKVI	4.77
[…] (CDR3 as printed); D9E derived by comparing it with the table's wild-type CDR3 AGPMKTSYDKVI	0
[…] (CDR3 as printed); P3G derived by comparing it with the table's wild-type CDR3 AGPMKTSYDKVI	0
[…] (CDR3 as printed); D9A derived by comparing it with the table's wild-type CDR3 AGPMKTSYDKVI	0
[…] (CDR3 as printed); K10P derived by comparing it with the table's wild-type CDR3 AGPMKTSYDKVI	0
[…] (CDR3 as printed); T6A derived by comparing it with the table's wild-type CDR3 AGPMKTSYDKVI	0
[…] (CDR3 as printed); I12V derived by comparing it with the table's wild-type CDR3 AGPMKTSYDKVI	11.6
[…] (CDR3 as printed); T6F derived by comparing it with the table's wild-type CDR3 AGPMKTSYDKVI	0
[…] (CDR3 as printed); K10A derived by comparing it with the table's wild-type CDR3 AGPMKTSYDKVI	0
[…] (CDR3 as printed); K10G derived by comparing it with the table's wild-type CDR3 AGPMKTSYDKVI	0
[…] (CDR3 as printed); K10V derived by comparing it with the table's wild-type CDR3 AGPMKTSYDKVI	0
[…] (CDR3 as printed); D9F derived by comparing it with the table's wild-type CDR3 AGPMKTSYDKVI	0

Variant	enrichment
[…] (CDR3 as printed); K5G derived by comparing it with the table's wild-type CDR3 AGPMKTSYDKVI	12.9
[…] (CDR3 as printed); P3T derived by comparing it with the table's wild-type CDR3 AGPMKTSYDKVI	0
[…] (CDR3 as printed); K10Q derived by comparing it with the table's wild-type CDR3 AGPMKTSYDKVI	1.98
[…] (CDR3 as printed); K10Y derived by comparing it with the table's wild-type CDR3 AGPMKTSYDKVI	4.15
[…] (CDR3 as printed); K10L derived by comparing it with the table's wild-type CDR3 AGPMKTSYDKVI	0
[…] (CDR3 as printed); M4T derived by comparing it with the table's wild-type CDR3 AGPMKTSYDKVI	12.4
[…] (CDR3 as printed); T6L derived by comparing it with the table's wild-type CDR3 AGPMKTSYDKVI	0
[…] (CDR3 as printed); S7W derived by comparing it with the table's wild-type CDR3 AGPMKTSYDKVI	0
[…] (CDR3 as printed); K10M derived by comparing it with the table's wild-type CDR3 AGPMKTSYDKVI	0
[…] (CDR3 as printed); I12T derived by comparing it with the table's wild-type CDR3 AGPMKTSYDKVI	0
[…] (CDR3 as printed); K10H derived by comparing it with the table's wild-type CDR3 AGPMKTSYDKVI	0.422
[…] (CDR3 as printed); A1V derived by comparing it with the table's wild-type CDR3 AGPMKTSYDKVI	0
[…] (CDR3 as printed); M4C derived by comparing it with the table's wild-type CDR3 AGPMKTSYDKVI	0
[…] (CDR3 as printed); S7A derived by comparing it with the table's wild-type CDR3 AGPMKTSYDKVI	3.32
[…] (CDR3 as printed); K10D derived by comparing it with the table's wild-type CDR3 AGPMKTSYDKVI	0
[…] (CDR3 as printed); I12L derived by comparing it with the table's wild-type CDR3 AGPMKTSYDKVI	0.259
[…] (CDR3 as printed); G2M derived by comparing it with the table's wild-type CDR3 AGPMKTSYDKVI	0.715
[…] (CDR3 as printed); I12P derived by comparing it with the table's wild-type CDR3 AGPMKTSYDKVI	0
[…] (CDR3 as printed); M4G derived by comparing it with the table's wild-type CDR3 AGPMKTSYDKVI	0
[…] (CDR3 as printed); S7K derived by comparing it with the table's wild-type CDR3 AGPMKTSYDKVI	0
[…] (CDR3 as printed); M4F derived by comparing it with the table's wild-type CDR3 AGPMKTSYDKVI	0

Variant	enrichment
[…] (CDR3 as printed); K5L derived by comparing it with the table's wild-type CDR3 AGPMKTSYDKVI	0
[…] (CDR3 as printed); P3K derived by comparing it with the table's wild-type CDR3 AGPMKTSYDKVI	0
[…] (CDR3 as printed); A1S derived by comparing it with the table's wild-type CDR3 AGPMKTSYDKVI	0.551
[…] (CDR3 as printed); T6E derived by comparing it with the table's wild-type CDR3 AGPMKTSYDKVI	0
[…] (CDR3 as printed); K10F derived by comparing it with the table's wild-type CDR3 AGPMKTSYDKVI	0
[…] (CDR3 as printed); P3D derived by comparing it with the table's wild-type CDR3 AGPMKTSYDKVI	0
[…] (CDR3 as printed); T6H derived by comparing it with the table's wild-type CDR3 AGPMKTSYDKVI	0
[…] (CDR3 as printed); M4I derived by comparing it with the table's wild-type CDR3 AGPMKTSYDKVI	18.9
[…] (CDR3 as printed); G2Y derived by comparing it with the table's wild-type CDR3 AGPMKTSYDKVI	0
[…] (CDR3 as printed); S7H derived by comparing it with the table's wild-type CDR3 AGPMKTSYDKVI	0
[…] (CDR3 as printed); I12N derived by comparing it with the table's wild-type CDR3 AGPMKTSYDKVI	0.107
[…] (CDR3 as printed); I12W derived by comparing it with the table's wild-type CDR3 AGPMKTSYDKVI	0
[…] (CDR3 as printed); S7C derived by comparing it with the table's wild-type CDR3 AGPMKTSYDKVI	0
[…] (CDR3 as printed); K5A derived by comparing it with the table's wild-type CDR3 AGPMKTSYDKVI	23.5
[…] (CDR3 as printed); G2D derived by comparing it with the table's wild-type CDR3 AGPMKTSYDKVI	0
[…] (CDR3 as printed); S7T derived by comparing it with the table's wild-type CDR3 AGPMKTSYDKVI	0
[…] (CDR3 as printed); D9H derived by comparing it with the table's wild-type CDR3 AGPMKTSYDKVI	0.283
[…] (CDR3 as printed); P3Y derived by comparing it with the table's wild-type CDR3 AGPMKTSYDKVI	0
[…] (CDR3 as printed); P3R derived by comparing it with the table's wild-type CDR3 AGPMKTSYDKVI	0
[…] (CDR3 as printed); D9G derived by comparing it with the table's wild-type CDR3 AGPMKTSYDKVI	0
[…] (CDR3 as printed); D9T derived by comparing it with the table's wild-type CDR3 AGPMKTSYDKVI	0

Variant	enrichment
[…] (CDR3 as printed); T6D derived by comparing it with the table's wild-type CDR3 AGPMKTSYDKVI	0
[…] (CDR3 as printed); S7P derived by comparing it with the table's wild-type CDR3 AGPMKTSYDKVI	0
[…] (CDR3 as printed); K10T derived by comparing it with the table's wild-type CDR3 AGPMKTSYDKVI	0
[…] (CDR3 as printed); K5W derived by comparing it with the table's wild-type CDR3 AGPMKTSYDKVI	5.12
[…] (CDR3 as printed); D9K derived by comparing it with the table's wild-type CDR3 AGPMKTSYDKVI	0
[…] (CDR3 as printed); D9Q derived by comparing it with the table's wild-type CDR3 AGPMKTSYDKVI	0
[…] (CDR3 as printed); G2P derived by comparing it with the table's wild-type CDR3 AGPMKTSYDKVI	0.351
[…] (CDR3 as printed); I12C derived by comparing it with the table's wild-type CDR3 AGPMKTSYDKVI	0
[…] (CDR3 as printed); G2W derived by comparing it with the table's wild-type CDR3 AGPMKTSYDKVI	0
[…] (CDR3 as printed); P3A derived by comparing it with the table's wild-type CDR3 AGPMKTSYDKVI	0
[…] (CDR3 as printed); P3Q derived by comparing it with the table's wild-type CDR3 AGPMKTSYDKVI	0
[…] (CDR3 as printed); M4N derived by comparing it with the table's wild-type CDR3 AGPMKTSYDKVI	0
[…] (CDR3 as printed); T6G derived by comparing it with the table's wild-type CDR3 AGPMKTSYDKVI	0
[…] (CDR3 as printed); M4L derived by comparing it with the table's wild-type CDR3 AGPMKTSYDKVI	0
[…] (CDR3 as printed); M4W derived by comparing it with the table's wild-type CDR3 AGPMKTSYDKVI	0
[…] (CDR3 as printed); I12E derived by comparing it with the table's wild-type CDR3 AGPMKTSYDKVI	0.34
[…] (CDR3 as printed); G2A derived by comparing it with the table's wild-type CDR3 AGPMKTSYDKVI	0.952
[…] (CDR3 as printed); A1Y derived by comparing it with the table's wild-type CDR3 AGPMKTSYDKVI	0.416
[…] (CDR3 as printed); P3W derived by comparing it with the table's wild-type CDR3 AGPMKTSYDKVI	0
[…] (CDR3 as printed); I12A derived by comparing it with the table's wild-type CDR3 AGPMKTSYDKVI	2.32
